Positions of bridges follow the written chain, without caps; N, C: chain ends. Non-standard residues stand in square brackets, D forms with d. Residues, ends and D or L forms follow the SMILES beside them. 2Nal = N[C@@H](Cc1ccc2ccccc2c1)C(=O)O
How the values were obtained:
hVEGF-A (8-109) = molecular target: T1, hVEGF-A (8-109) (Homo sapiens, UniProt P15692); experiment: Phage competition ELISA; format: binding; conditions: phage competition ELISA, FIG. 15
T1 sequence (P15692 214-315): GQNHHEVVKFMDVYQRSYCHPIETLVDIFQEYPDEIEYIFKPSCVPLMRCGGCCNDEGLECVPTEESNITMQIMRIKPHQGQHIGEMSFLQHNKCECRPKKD

mouse or rat VEGF-A = conditions: cited from earlier work
LRP6 E1E2 = molecular target: T2, LRP6 E1E2 (Homo sapiens, UniProt O75581); experiment: Phage selection / spot phage ELISA against LRP6 E1E2; format: binding
T2 sequence (O75581 20-630 limits assumed): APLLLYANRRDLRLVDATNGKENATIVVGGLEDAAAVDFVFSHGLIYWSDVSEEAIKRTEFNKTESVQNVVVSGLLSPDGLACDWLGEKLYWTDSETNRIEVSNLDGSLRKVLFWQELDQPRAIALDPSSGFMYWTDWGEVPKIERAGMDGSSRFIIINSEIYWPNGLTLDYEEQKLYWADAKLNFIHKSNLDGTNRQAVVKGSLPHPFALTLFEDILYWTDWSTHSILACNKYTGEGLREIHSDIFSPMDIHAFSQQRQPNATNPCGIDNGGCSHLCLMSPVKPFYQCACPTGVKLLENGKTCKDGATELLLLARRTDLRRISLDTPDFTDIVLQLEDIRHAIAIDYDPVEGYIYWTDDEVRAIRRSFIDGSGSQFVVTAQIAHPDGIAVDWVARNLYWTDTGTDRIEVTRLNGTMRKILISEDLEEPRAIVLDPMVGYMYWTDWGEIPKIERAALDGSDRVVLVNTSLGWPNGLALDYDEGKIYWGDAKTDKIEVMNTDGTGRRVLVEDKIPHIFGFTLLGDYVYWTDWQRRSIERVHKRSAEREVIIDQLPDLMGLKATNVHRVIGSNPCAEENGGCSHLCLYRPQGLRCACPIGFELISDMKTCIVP
Method: After four rounds of binding selection, individual phage clones were picked and inoculated into 450 μl 2YT media containing 50 µg/ml Carbenecillin and M13-KO7 helper phage in 96-well blocks, which were grown at 37° C. overnight. The supernatant was analyzed with spot phage ELISA as follows: hVEGF(8-109) or BSA were coated on 384-well MAXISORP™ immunoplates and phage supernatant diluted (1:3) with PBT buffer was added to the wells. The plates were washed and bound phage was detected with anti-M13-HRP followed by TMB substrate. In these assays, phage binding to BSA alone was tested in parallel to assess background binding. Clones whose binding signals for hVEGF-A (8-109) were more than 3 times higher than to BSA (background) were considered positive. Positive clones were subjected to DNA sequence analysis.
The naïve EETI-II libraries described in Example 2A were cycled through rounds of selection against LRP6 E1E2 protein. Twenty-two unique clones were identified which bound LRP6 E1E2 (Table 46). These initial hits contained variations in amino acid content within loops 1 and 5. […] The newly evolved variants recapitulated a motif which occurs in natural ligands.

hVEGF-A = molecular target: T3, hVEGF-A (Homo sapiens, UniProt P15692); experiment: KDR-CHO VEGF assay to determine cellular IC50 (VEGF mediated Tyr phosphorylation of KDR); format: cell-based
T3 sequence (P15692 207-395): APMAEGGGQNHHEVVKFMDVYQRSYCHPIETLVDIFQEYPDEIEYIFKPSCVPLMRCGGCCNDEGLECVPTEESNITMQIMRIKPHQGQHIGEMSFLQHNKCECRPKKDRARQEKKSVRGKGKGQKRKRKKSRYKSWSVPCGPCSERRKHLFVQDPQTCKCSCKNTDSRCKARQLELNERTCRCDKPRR
Method: KDR-CHO cells (CHO cells stably transfected with gD tagged-KDR) were grown in cell growth medium (DMEM/Ham's F-12, 10% diafiltered FBS (GIBCO catalog no. 26400), 25 mM HEPES, 2 mM L-GLUTAMAX™). For VEGF stimulation assay, 5×10^4 cells/well were plated in 100 μl of cell plating medium (DMEM/Ham's F-12, 0.2% BSA, 0.25% diafiltered FBS, 25 mM HEPES, 2 mM L-GLUTAMAX™) in 96-well tissue culture plate and incubated at 37° C. overnight. The medium was replaced with 100 I1 of serum-free cell stimulation medium (DMEM/Ham's F-12, 0.5% BSA, 25 mM HEPES) and cells were incubated at 37° C. for 2 hr. One hour before stimulation, the medium was replaced with 50 I1 of serum-free cell stimulation medium. Concurrently, VEGF (50 ng/ml for hVEGF, 100 ng/ml for mVEGF and rVEGF) was pre-incubated with titrated amount of CKP or anti-VEGF in 50 μl of serum-free cell stimulation medium at 37° C. for 1 hour and added to the cells. The cells were stimulated for 15 min at 37 C and the medium is removed. The cells were lysed with 130 I1 of ice-cold cell lysis buffer (150 mM NaCl, 50 mM HEPES, 0.5% Triton-X 100, HALT protease and phosphatase inhibitor cocktail (ThermoFisher Scientific, Inc. catalog no. 78444), 5 mM EDTA). VEGF mediated Tyr phosphorylation of KDR was determined by ELISA-based assay. Briefly, MAXISORP™ 96 well plates (ThermoFisher Scientific, Inc. catalog no. 439454) were coated with 100 I1 of anti-gD antibody diluted in PBS (1 μg/ml) at 4° C. overnight and washed three times with washing buffer (PBS, 0.05% TWEEN®20, pH 7.4). The plates were blocked with 300 I1 of blocking buffer (PBS, 0.5% BSA) at room temperature for 1 hour followed by washing three times with washing buffer. The above KDR-CHO cell lysate (100 μl) was added to each well and incubated at room temperature for 2 hours. The plates were washed four times with washing buffer followed by incubation with 100 I1 of 0.5 μg/ml biotin-conjugated anti-phosphotyrosine (clone 4G10, Millipore catalog no. 16-103) in blocking buffer at room temperature for 2 hours. After washing four times, the plates were incubated with 100 I1 of HRP-conjugated streptavidin in blocking buffer at room temperature for 30 min. After washing four times, the plates were developed with 100 I1 of TMB substrate (BD Biosciences) at room temperature for 20-30 min and stopped by addition of 50 μl of H2SO4 solution. The optical density of each well was determined using a microplate reader set to 450 nm.

9.54-28: C-terminal two-residue extension variant based on 9.54 (Table 39) (GCNIMLPFWGCKQDFDCLAGCICQYYQSCGFH)
improvement of binding affinity for hVEGF-A (8-109) compared to parent clone (hVEGF-A (8-109)): approximately 10 fold

GCNIMLPFWGCGQSFECLAGCICQYYQSCGIA [9.54.1-2]
improvement of binding affinity for hVEGF-A (8-109) compared to parent clone (hVEGF-A (8-109)): approximately 10 fold

GCNIMLPFWGCGQSFECLAGCICQYYQSCGTR [9.54.1-36]
improvement of binding affinity for hVEGF-A (8-109) compared to parent clone (hVEGF-A (8-109)): approximately 10 fold

bevacizumab
binding to mouse or rat VEGF-A (mouse or rat VEGF-A): do not bind

LRP6_CKP6 (GCRNSIKRCKQNSDCLAGCVCSVGHGCG)
S/N (signal to noise ratio as compared to BSA control) (LRP6 E1E2; LRP6 E1E2 vs BSA control): 37.36
ELISA (LRP6 E1E2; binding signal against LRP6 E1E2): 3.10

CC[C@H](C)[C@H](NC(=O)[C@@H]1CSSC[C@H](NC(=O)CN)C(=O)N[C@@H](CC(=O)O)C(=O)N[C@@H](C(C)C)C(=O)N[C@@H](CCSC)C(=O)N[C@@H](CCC(N)=O)C(=O)N2CCC[C@H]2C(=O)N[C@@H](Cc2ccc(O)cc2)C(=O)N[C@@H](Cc2c[nH]c3ccccc23)C(=O)NCC(=O)N[C@H]2CSSC[C@H](NC(=O)[C@H](CC(=O)O)NC(=O)[C@H]([C@@H](C)CC)NC(=O)[C@H](CC(=O)O)NC(=O)[C@@H]3CCCN3C(=O)CNC2=O)C(=O)N[C@@H](CC(C)C)C(=O)N[C@@H](CO)C(=O)N[C@@H](CC(N)=O)C(=O)N1)C(=O)N[C@H]1CSSC[C@@H](C(=O)NCC(=O)O)NC(=O)[C@H](CO)NC(=O)[C@H](CC(N)=O)NC(=O)[C@H](Cc2ccc(O)cc2)NC(=O)[C@H](Cc2c[nH]c3ccccc23)NC(=O)[C@H](Cc2c[nH]cn2)NC1=O [9.63.12.12] (H-GCDVMQPYWGCGPDIDCLSNCICHWYNSCG-OH; disulfide 2-21, 11-17, 23-29; N-terminus and C-terminus assumed)
FOLD IMPROVEMENT RELATIVE TO VARIANT 9.54.90 (hVEGF-A; Table 36, from cellular IC50): 2.41

CC[C@H](C)[C@@H]1NC(=O)[C@H](CC(N)=O)NC(=O)[C@@H](N)CSSC[C@@H](C(=O)N[C@H](C(=O)N[C@H]2CSSC[C@@H](C(=O)O)NC(=O)[C@H](CO)NC(=O)[C@H](CCC(N)=O)NC(=O)[C@H](Cc3ccc(O)cc3)NC(=O)[C@H](Cc3ccc(O)cc3)NC(=O)[C@H](CCC(N)=O)NC2=O)C(C)C)NC(=O)CNC(=O)[C@H](C)NC(=O)[C@H](CC(C)C)NC(=O)[C@@H]2CSSC[C@H](NC(=O)CNC(=O)[C@H](Cc3c[nH]c4ccccc34)NC(=O)[C@H](Cc3ccc(O)cc3)NC(=O)[C@@H]3CCCN3C(=O)[C@H](CC(C)C)NC(=O)[C@H](CCSC)NC1=O)C(=O)NCC(=O)N[C@@H](CCCNC(=N)N)C(=O)N[C@@H](CC(=O)O)C(=O)N[C@@H](Cc1ccccc1)C(=O)N[C@@H](CCC(=O)O)C(=O)N2 [9.54.90.F7Y.Δ2G] (H-CNIMLPYWGCGRDFECLAGCVCQYYQSC-OH; disulfide 1-20, 10-16, 22-28; N-terminus and C-terminus assumed)
FOLD IMPROVEMENT RELATIVE TO VARIANT 9.54.90 (hVEGF-A; Table 38, from cellular IC50): 0.44

CC[C@H](C)[C@@H]1NC(=O)[C@H](CC(N)=O)NC(=O)[C@@H](NC(=O)CN)CSSC[C@@H](C(=O)N[C@H](C(=O)N[C@H]2CSSC[C@@H](C(=O)NCC(=O)O)NC(=O)[C@H](CO)NC(=O)[C@H](CCC(N)=O)NC(=O)[C@H](Cc3ccc(O)cc3)NC(=O)[C@H](Cc3ccc(O)cc3)NC(=O)[C@H](CCC(N)=O)NC2=O)C(C)C)NC(=O)CNC(=O)[C@H](C)NC(=O)[C@H](CC(C)C)NC(=O)[C@@H]2CSSC[C@H](NC(=O)CNC(=O)[C@H](Cc3ccc4ccccc4c3)NC(=O)[C@H](Cc3ccccc3)NC(=O)[C@@H]3CCCN3C(=O)[C@H](CC(C)C)NC(=O)[C@H](CCSC)NC1=O)C(=O)NCC(=O)N[C@@H](CCCNC(=N)N)C(=O)N[C@@H](CC(=O)O)C(=O)N[C@@H](Cc1ccccc1)C(=O)N[C@@H](CCC(=O)O)C(=O)N2 [9.54.90.Naph2] (H-GCNIMLPF[2Nal]GCGRDFECLAGCVCQYYQSCG-OH; disulfide 2-21, 11-17, 23-29; N-terminus and C-terminus assumed)
FOLD IMPROVEMENT RELATIVE TO VARIANT 9.54.90 (hVEGF-A; Table 38, from cellular IC50): 0.08

GCNIMLPFWGCGQSFECLAGCICQYYQSCGGS [9.54.1-63]
improvement of binding affinity for hVEGF-A (8-109) compared to parent clone (hVEGF-A (8-109)): approximately 10 fold

CC[C@H](C)[C@H](NC(=O)[C@@H]1CSSC[C@H](NC(=O)CN)C(=O)N[C@@H](CC(N)=O)C(=O)N[C@@H]([C@@H](C)CC)C(=O)N[C@@H](CCSC)C(=O)N[C@@H](CC(C)C)C(=O)N2CCC[C@H]2C(=O)N[C@@H](Cc2ccccc2)C(=O)N[C@@H](Cc2c[nH]c3ccccc23)C(=O)NCC(=O)N[C@H]2CSSC[C@H](NC(=O)[C@H](CCC(=O)O)NC(=O)[C@H](Cc3ccccc3)NC(=O)[C@H](CC(=O)O)NC(=O)[C@H](CCCNC(=N)N)NC(=O)CNC2=O)C(=O)N[C@@H](Cc2ccccc2)C(=O)N[C@@H](Cc2ccc(O)cc2)C(=O)N[C@@H](CCC(=O)O)C(=O)N1)C(=O)N[C@H]1CSSC[C@@H](C(=O)NCC(=O)O)NC(=O)[C@H](CO)NC(=O)[C@H](CCC(N)=O)NC(=O)[C@H](Cc2ccc(O)cc2)NC(=O)[C@H](Cc2ccc(O)cc2)NC(=O)[C@H](CCC(N)=O)NC1=O [9.54.90.62] (H-GCNIMLPFWGCGRDFECFYECICQYYQSCG-OH; disulfide 2-21, 11-17, 23-29; N-terminus and C-terminus assumed)
FOLD IMPROVEMENT RELATIVE TO VARIANT 9.54.90 (hVEGF-A; Table 36, from cellular IC50): 1.47
FOLD IMPROVEMENT RELATIVE TO VARIANT 9.54.90 (hVEGF-A; Table 38, from cellular IC50): 1.47

ranibizumab
binding to mouse or rat VEGF-A (mouse or rat VEGF-A): do not bind

GCNIMLPFWGCGQSFECLAGCICQYYQSCGLS [9.54.1-42]
improvement of binding affinity for hVEGF-A (8-109) compared to parent clone (hVEGF-A (8-109)): approximately 10 fold

CNIMLPYWGCGRDFECLAGCVCQYYQSC [VEGF_CKP9.54.90 F7Y A2G]
cellular potency relative to VEGF_CKP9.54.90 (hVEGF-A; Table 38): slight reduction of cellular potency

GCNIMLPFWGCGQSFECLAGCICQYYQSCGVH [9.54.1-90]
improvement of binding affinity for hVEGF-A (8-109) compared to parent clone (hVEGF-A (8-109)): approximately 10 fold
